In this assay the target is mCherry-LacRnls-IE1 1–540 (human herpesvirus 6B (HHV-6B)). In words: LacO/LacR tethering assay.

Substance “NBS1 (nibrin, NBN), endogenous (from UniProt O60934 1-754) (natural protein)” yielded a percent of mCherry-LacRnls fusion foci colocalized with NBS1 at the LacO array of 81%.

Source of the values: publication doi:10.1101/2021.07.31.454588.
